# Measured values as given in patent US20210085770A1 (KORANEX CAPITAL, published 2021).
# Target: T1, recombinant SARS-CoV-2 S1 protein expressed from insect (Sf9) cells (S1-His, SinoBiological, Cat. No. … (SARS-CoV-2, UniProt P0DTC2 16-685, glycosylated by insect cells))
# T1 construct: also called 51-His (as misprinted)
# Experiment: ELISA, coated insect-cell S1-His, HRP-conjugated lectin 10 ug/mL
row,Binder,mean fold increase of OD450 [fold]
1,Vicia villosa lectin (VVA) (other) SESTSFSFTNFNPNQENLILQEDALVNSKGTLELTKNGKPVPESLGRNCTTLASFTTSFSFVMSAPNSLDVADGLAFFLAPPDTQPQKRGGFLGLFKDRKHDISYQSVAVEFDTYSNVWDPNTTHIGIDTNTIESKKITPFDMVYGEKILFASLVFPVSQDILPEYVRVGFSATTGLNEGVVETH,22.5
2,Maackia amurensis lectin (MAA) (other) SDELSFTINNFVPNEADLLFQGEASVSSTGVLQLTRVENGQPQKYSVGRALYAAPVRIWDNTTGSVASFSTSFTFVVKAPNPDITSDGLAFYLAPPDSQIPSGSVSKYLGLFNNSNSDSSNQIVAVELDTYFAHSYDPWDPNYRHIGIDVNGIESIKTVQWDWINGGVAFATITYLAPNKTLIASLVYPSNQTTFSVAASVDLKEILPEWVRVGFSAATGYPTEVETHDVLSWSFTSTLEANCDAATEN,4.3
